The target of one data set is FilGAP (Homo sapiens) (UniProt Q8N264). As to conditions: cited from earlier work.
Data set [1] has as its target T1, FLAG-tagged full-length FLNa (filamin A), wild type (human, UniProt P21333 1-2647).
T1 construct: filamin A (FLNa), human, full length; also called FLAG-FLNa; WT FLAG-FLNa; source: Sf9 insect cells (baculovirus), purified
The data set can be described thus: pull-down; GST-His- or MBP-His-FilGAP constructs (various concentrations) with 25 nM FLAG-FLNa on FLAG-specific mAb M2 agarose; 50 mM Tris-HCl, 150 mM NaCl, 0.1% Triton X-100, 0.1 mM EGTA, pH 7.4, 1 h, 25°C; immunoblot for GST or MBP. As to conditions: both partners purified.

For data set [2], the target named is T2, FLAG-FLNa L2439M (disease-related) (human, UniProt P21333 1-2647, L2439M).
T2 construct: filamin A (FLNa), human, full length, transcript of the patient mutation 7315C>A; source: Sf9 cells, purified
Put plainly: pull-down; full-length FilGAP or His-FilGAP lacking 649–725 (50 nM in Figure 1C) mixed with increasing amounts of wild-type or mutant FLAG-FLNa, precipitated with FLAG-specific mAb on agarose; immunoblot for FilGAP or the His tag. As to conditions: both partners purified.

Data set [3] deals with the molecule itself. The data set can be described thus: SEC; Superose 6 10/300 GL, 20 mM Tris-HCl pH 7.4, 150 mM NaCl, 0.5 mM EGTA, 4°C; size from calibration with standards.

T1 sequence (P21333 whole entry): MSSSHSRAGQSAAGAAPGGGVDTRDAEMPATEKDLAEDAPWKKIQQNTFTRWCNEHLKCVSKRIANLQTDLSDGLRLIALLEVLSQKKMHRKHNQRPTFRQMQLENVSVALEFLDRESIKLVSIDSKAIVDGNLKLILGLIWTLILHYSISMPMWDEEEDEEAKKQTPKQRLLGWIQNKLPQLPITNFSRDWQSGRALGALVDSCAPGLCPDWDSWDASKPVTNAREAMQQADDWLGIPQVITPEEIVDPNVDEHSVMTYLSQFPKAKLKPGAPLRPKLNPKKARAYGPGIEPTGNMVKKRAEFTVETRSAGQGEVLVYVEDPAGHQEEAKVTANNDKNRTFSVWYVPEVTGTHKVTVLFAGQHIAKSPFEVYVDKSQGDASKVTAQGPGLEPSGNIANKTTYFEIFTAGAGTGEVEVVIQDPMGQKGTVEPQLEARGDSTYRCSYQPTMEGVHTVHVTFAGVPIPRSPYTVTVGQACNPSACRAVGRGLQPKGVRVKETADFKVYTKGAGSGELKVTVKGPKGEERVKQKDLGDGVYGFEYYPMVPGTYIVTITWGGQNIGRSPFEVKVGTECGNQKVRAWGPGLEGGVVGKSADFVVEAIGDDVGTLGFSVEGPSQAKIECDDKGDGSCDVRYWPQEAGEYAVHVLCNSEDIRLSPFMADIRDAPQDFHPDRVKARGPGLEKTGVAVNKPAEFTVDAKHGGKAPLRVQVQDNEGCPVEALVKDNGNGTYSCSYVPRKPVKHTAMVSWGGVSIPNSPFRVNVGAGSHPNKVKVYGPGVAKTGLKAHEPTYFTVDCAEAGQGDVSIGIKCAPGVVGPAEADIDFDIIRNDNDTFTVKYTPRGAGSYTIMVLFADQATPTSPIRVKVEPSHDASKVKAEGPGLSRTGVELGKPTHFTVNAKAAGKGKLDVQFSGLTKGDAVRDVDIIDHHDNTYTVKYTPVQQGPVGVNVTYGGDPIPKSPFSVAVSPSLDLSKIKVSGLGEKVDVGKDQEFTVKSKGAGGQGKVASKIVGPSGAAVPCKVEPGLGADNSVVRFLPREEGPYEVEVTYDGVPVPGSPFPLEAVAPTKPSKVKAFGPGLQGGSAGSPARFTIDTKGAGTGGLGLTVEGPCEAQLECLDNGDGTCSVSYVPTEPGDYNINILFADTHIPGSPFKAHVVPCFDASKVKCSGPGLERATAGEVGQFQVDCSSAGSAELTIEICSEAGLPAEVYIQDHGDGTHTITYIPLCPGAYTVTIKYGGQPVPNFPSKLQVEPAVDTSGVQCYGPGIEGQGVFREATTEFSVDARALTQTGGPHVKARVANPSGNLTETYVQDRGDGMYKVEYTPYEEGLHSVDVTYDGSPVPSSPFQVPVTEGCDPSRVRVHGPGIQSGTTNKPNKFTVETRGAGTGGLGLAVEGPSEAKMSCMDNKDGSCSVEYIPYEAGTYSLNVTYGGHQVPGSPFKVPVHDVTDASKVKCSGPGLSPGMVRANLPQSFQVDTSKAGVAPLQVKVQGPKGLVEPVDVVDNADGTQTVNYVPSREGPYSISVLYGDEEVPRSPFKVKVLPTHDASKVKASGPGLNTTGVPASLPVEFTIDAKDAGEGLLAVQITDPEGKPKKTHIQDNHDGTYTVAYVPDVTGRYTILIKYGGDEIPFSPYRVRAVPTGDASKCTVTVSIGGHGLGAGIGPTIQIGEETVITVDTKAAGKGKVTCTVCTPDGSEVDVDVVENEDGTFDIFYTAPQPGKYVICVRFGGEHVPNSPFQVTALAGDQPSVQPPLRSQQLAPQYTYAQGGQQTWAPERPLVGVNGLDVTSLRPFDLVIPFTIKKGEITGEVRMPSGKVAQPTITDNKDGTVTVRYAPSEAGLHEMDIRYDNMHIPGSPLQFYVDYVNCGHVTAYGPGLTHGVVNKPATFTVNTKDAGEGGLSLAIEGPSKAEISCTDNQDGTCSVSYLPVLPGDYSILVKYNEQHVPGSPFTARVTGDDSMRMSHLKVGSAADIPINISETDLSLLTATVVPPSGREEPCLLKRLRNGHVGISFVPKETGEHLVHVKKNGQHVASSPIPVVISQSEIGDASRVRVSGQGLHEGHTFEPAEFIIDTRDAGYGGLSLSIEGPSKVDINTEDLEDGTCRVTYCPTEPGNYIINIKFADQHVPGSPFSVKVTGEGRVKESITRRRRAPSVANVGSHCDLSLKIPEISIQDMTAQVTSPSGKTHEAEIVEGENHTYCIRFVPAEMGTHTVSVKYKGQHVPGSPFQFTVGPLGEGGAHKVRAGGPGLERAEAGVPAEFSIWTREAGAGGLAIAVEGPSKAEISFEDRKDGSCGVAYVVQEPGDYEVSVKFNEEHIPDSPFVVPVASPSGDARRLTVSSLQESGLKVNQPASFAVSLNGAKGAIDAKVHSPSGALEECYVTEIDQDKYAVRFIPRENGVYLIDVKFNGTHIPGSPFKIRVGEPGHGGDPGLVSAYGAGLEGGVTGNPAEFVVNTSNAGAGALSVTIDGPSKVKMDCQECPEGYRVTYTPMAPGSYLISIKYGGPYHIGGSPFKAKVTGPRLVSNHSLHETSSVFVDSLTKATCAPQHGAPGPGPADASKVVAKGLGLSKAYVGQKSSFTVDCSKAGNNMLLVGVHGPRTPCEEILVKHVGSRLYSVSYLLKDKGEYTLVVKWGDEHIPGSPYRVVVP
T2 sequence (P21333 whole entry L2439M): as the sequence (P21333 whole entry) above, with L2439M counted along it

As to filamin A (from UniProt P21333), the Kd with FilGAP (Homo sapiens) was 200 nM.

B1: GST-His-FilGAP 649–748 (C-terminal 100 residues) (domain or fragment, human, UniProt Q8N264 649-748, looked up)
chain: SSLKQEMTKQKIEYESRIKSLEQRNLTLETEMMSLHDELDQERKKFTMIEIKMRNAERAKEDAEKRNDMLQKEMEQFFSTFGELTVEPRRTERGNTIWIQ
notes: FilGAP, human, C-terminal 100 residues; also called GST-FilGAP fragment; source: E. coli (pGEX-4T-3-HT), purified
B1: in data set [1], the binding result is “binds”.

B2: full-length FilGAP, purified from Sf9 insect cells (natural protein, human, UniProt Q8N264 1-748, looked up)
chain: MEENNDSTENPQQGQGRQNAIKCGWLRKQGGFVKTWHTRWFVLKGDQLYYFKDEDETKPLGTIFLPGNKVSEHPCNEENPGKFLFEVVPGGDRDRMTANHESYLLMASTQNDMEDWVKSIRRVIWGPFGGGIFGQKLEDTVRYEKRYGNRLAPMLVEQCVDFIRQRGLKEEGLFRLPGQANLVKELQDAFDCGEKPSFDSNTDVHTVASLLKLYLRELPEPVIPYAKYEDFLSCAKLLSKEEEAGVKELAKQVKSLPVVNYNLLKYICRFLDEVQSYSGVNKMSVQNLATVFGPNILRPKVEDPLTIMEGTVVVQQLMSVMISKHDCLFPKDAELQSKPQDGVSNNNEIQKKATMGQLQNKENNNTKDSPSRQCSWDKSESPQRSSMNNGSPTALSGSKTNSPKNSVHKLDVSRSPPLMVKKNPAFNKGSGIVTNGSFSSSNAEGLEKTQTTPNGSLQARRSSSLKVSGTKMGTHSVQNGTVRMGILNSDTLGNPTNVRNMSWLPNGYVTLRDNKQKEQAGELGQHNRLSTYDNVHQQFSMMNLDDKQSIDSATWSTSSCEISLPENSNSCRSSTTTCPEQDFFGGNFEDPVLDGPPQDDLSHPRDYESKSDHRSVGGRSSRATSSSDNSETFVGNSSSNHSALHSLVSSLKQEMTKQKIEYESRIKSLEQRNLTLETEMMSLHDELDQERKKFTMIEIKMRNAERAKEDAEKRNDMLQKEMEQFFSTFGELTVEPRRTERGNTIWIQ
notes: FilGAP, human, full length; Tag-free FilGAP was prepared from His-FilGAP with TEV protease; also called Purified FilGAP; source: Sf9 cells, purified (Ni-NTA)
B2: the binding result in data set [2] is reported as “binds”.

B3: His-tag full-length FilGAP (natural protein, human, UniProt Q8N264 1-748, looked up)
chain: MEENNDSTENPQQGQGRQNAIKCGWLRKQGGFVKTWHTRWFVLKGDQLYYFKDEDETKPLGTIFLPGNKVSEHPCNEENPGKFLFEVVPGGDRDRMTANHESYLLMASTQNDMEDWVKSIRRVIWGPFGGGIFGQKLEDTVRYEKRYGNRLAPMLVEQCVDFIRQRGLKEEGLFRLPGQANLVKELQDAFDCGEKPSFDSNTDVHTVASLLKLYLRELPEPVIPYAKYEDFLSCAKLLSKEEEAGVKELAKQVKSLPVVNYNLLKYICRFLDEVQSYSGVNKMSVQNLATVFGPNILRPKVEDPLTIMEGTVVVQQLMSVMISKHDCLFPKDAELQSKPQDGVSNNNEIQKKATMGQLQNKENNNTKDSPSRQCSWDKSESPQRSSMNNGSPTALSGSKTNSPKNSVHKLDVSRSPPLMVKKNPAFNKGSGIVTNGSFSSSNAEGLEKTQTTPNGSLQARRSSSLKVSGTKMGTHSVQNGTVRMGILNSDTLGNPTNVRNMSWLPNGYVTLRDNKQKEQAGELGQHNRLSTYDNVHQQFSMMNLDDKQSIDSATWSTSSCEISLPENSNSCRSSTTTCPEQDFFGGNFEDPVLDGPPQDDLSHPRDYESKSDHRSVGGRSSRATSSSDNSETFVGNSSSNHSALHSLVSSLKQEMTKQKIEYESRIKSLEQRNLTLETEMMSLHDELDQERKKFTMIEIKMRNAERAKEDAEKRNDMLQKEMEQFFSTFGELTVEPRRTERGNTIWIQ
notes: FilGAP, human, full length; also called His-FilGAP; His-tag FilGAP; source: Sf9 cells, purified (Ni-NTA)
With B3, the “stoichiometry N” value in data set [3] stood at 2.
